In patent US10064928B2, “Peptides and combination of peptides for use in immunotherapy against CLL and other cancers” (IMMATICS BIOTECHNOLOGIES GMBH, priority 2015, dated 2018):

What follows are substances tested against HLA-A*02:01 (Homo sapiens, UniProt P04439, D140Y/D185E/D98H/E176V/E277Q/G131W/G231S/I119V/I121R/I166T/I218V/L300P/L318F/N151K/N90K/P208A/P217A/Q86G/Q94H/R138H/R169H/T345S) (assay: MHC binding assay (UV-ligand exchange, beta2m ELISA)). Details: binding of HLA-class I restricted peptides to HLA-A*02:01, β2m ELISA.
Text: Candidate peptides for T cell based therapies according to the present invention were further tested for their MHC binding capacity (affinity). The individual peptide-MHC complexes were produced by UV-ligand exchange, where a UV-sensitive peptide is cleaved upon UV-irradiation, and exchanged with the peptide of interest as analyzed. Only peptide candidates that can effectively bind and stabilize the peptide-receptive MHC molecules prevent dissociation of the MHC complexes. To determine the yield of the exchange reaction, an ELISA was performed based on the detection of the light chain (β2m) of stabilized MHC complexes. The assay was performed as generally described in Rodenko et al. (Rodenko et al., 2006).
96 well MAXISorp plates (NUNC) were coated over night with 2 ug/ml streptavidin in PBS at room temperature, washed 4× and blocked for 1 h at 37° C. in 2% BSA containing blocking buffer. Refolded HLA-A*02:01/MLA-001 monomers served as standards, covering the range of 15-500 ng/ml. Peptide-MHC monomers of the UV-exchange reaction were diluted 100 fold in blocking buffer. Samples were incubated for 1 h at 37° C., washed four times, incubated with 2 ug/ml HRP conjugated anti-β2m for 1 h at 37° C., washed again and detected with TMB solution that is stopped with […]. Absorption was measured at 450 nm. Candidate peptides that show a high exchange yield (preferably higher than 50%, most preferred higher than 75%) are generally preferred for a generation and production of antibodies or fragments thereof, and/or T cell receptors or fragments thereof, as they show sufficient avidity to the MHC molecules and prevent dissociation of the MHC complexes.
For “222 (ALWELSLKI; listed as Homo sapiens) [compound 222]”, the “Peptide Exchange (MHC class I binding score, peptide exchange yield)” value (“Peptide Exchange” for short) was ““+++” (≥50 = +++)”. For “278 (YLDDLLPKL; listed as Homo sapiens) [compound 278]”, the “Peptide Exchange” value was ““+++” (≥50 = +++)”. For “216 (WLAGDVPAA; listed as Homo sapiens) [compound 216]”, the “Peptide Exchange” value was ““+++” (≥50 = +++)”. With “279 (YMAPEVVEA; listed as Homo sapiens) [compound 279]” the “Peptide Exchange” value was ““+++” (≥50 = +++)”. “259 (RLLDEQFAVL; listed as Homo sapiens) [compound 259]” was tested, and the “Peptide Exchange” value was ““+++” (≥50 = +++)”. For “29 (AVLQAVTAV; listed as Homo sapiens) [compound 29]”, the “Peptide Exchange” value was ““+++” (≥50 = +++)”. “315 (LVYEAPETV; listed as Homo sapiens) [compound 315]” was tested, and the “Peptide Exchange” value was ““+++” (≥50 = +++)”. “138 (NLLDIDAPVTV; listed as Homo sapiens) [compound 138]” was tested, and the “Peptide Exchange” value was ““+++” (≥50 = +++)”. For “297 (FLVEPQEDTRL; listed as Homo sapiens) [compound 297]”, the “Peptide Exchange” value was ““+++” (≥50 = +++)”. In the case of “60 (FVLDHEDGLNL; listed as Homo sapiens) [compound 60]”, the “Peptide Exchange” value was ““+++” (≥50 = +++)”. With “43 (FLLGPEALSFA; listed as Homo sapiens) [compound 43]” the “Peptide Exchange” value was ““++++” (≥75% = ++++)”. “82 (GLQSGVDIGV; listed as Homo sapiens) [compound 82]” was tested, and the “Peptide Exchange” value was ““+++” (≥50 = +++)”. With “371 (SLADDSVLERL; listed as Homo sapiens) [compound 371]” the “Peptide Exchange” value was ““+++” (≥50 = +++)”. In the case of “8 (ALAASALPALV; listed as Homo sapiens) [compound 8]”, the “Peptide Exchange” value was ““+++” (≥50 = +++)”. For “291 (ILLNEDDLVTI; listed as Homo sapiens) [compound 291]”, the “Peptide Exchange” value was ““+++” (≥50 = +++)”. For “147 (SILETVATL; listed as Homo sapiens) [compound 147]”, the “Peptide Exchange” value was ““+++” (≥50 = +++)”. In the case of “330 (VLMWEIYSL; listed as Homo sapiens) [compound 330]”, the “Peptide Exchange” value was ““+++” (≥50 = +++)”. “187 (VMDTHLVNI; listed as Homo sapiens) [compound 187]” was tested, and the “Peptide Exchange” value was ““++++” (≥75% = ++++)”. For “23 (ALYLTEVFL; listed as Homo sapiens) [compound 23]”, the “Peptide Exchange” value was ““++++” (≥75% = ++++)”. “178 (VLFFNVQEV; listed as Homo sapiens) [compound 178]” was tested, and the “Peptide Exchange” value was ““+++” (≥50 = +++)”. For “58 (YIQQGIFSV; listed as Homo sapiens) [compound 58]”, the “Peptide Exchange” value was ““+++” (≥50 = +++)”. “356 (FLHDHQAEL; listed as Homo sapiens) [compound 356]” was tested, and the “Peptide Exchange” value was ““++” (≥20% = ++)”. “367 (NLWSLVAKV; listed as Homo sapiens) [compound 367]” was tested, and the “Peptide Exchange” value was ““+++” (≥50 = +++)”. In the case of “39 (FLDALLTDV; listed as Homo sapiens) [compound 39]”, the “Peptide Exchange” value was ““+++” (≥50 = +++)”. In the case of “313 (LMADLEGLHL; listed as Homo sapiens) [compound 313]”, the “Peptide Exchange” value was ““+++” (≥50 = +++)”. “103 (KLGGTPAPA; listed as Homo sapiens) [compound 103]” was tested, and the “Peptide Exchange” value was ““++” (≥20% = ++)”. With “310 (LLSTLHLLV; listed as Homo sapiens) [compound 310]” the “Peptide Exchange” value was ““+++” (≥50 = +++)”. With “115 (LLFDKLYLL; listed as Homo sapiens) [compound 115]” the “Peptide Exchange” value was ““+++” (≥50 = +++)”. For “295 (ALLQKLQQL; listed as Homo sapiens) [compound 295]”, the “Peptide Exchange” value was ““+++” (≥50 = +++)”. For “196 (YLLLQTYVL; listed as Homo sapiens) [compound 196]”, the “Peptide Exchange” value was ““+” (≥10% = +)”. For “88 (ILDEIGADVQA; listed as Homo sapiens) [compound 88]”, the “Peptide Exchange” value was ““+++” (≥50 = +++)”. With “184 (VLSHNLYTV; listed as Homo sapiens) [compound 184]” the “Peptide Exchange” value was ““+++” (≥50 = +++)”. “126 (LLPEGGITAI; listed as Homo sapiens) [compound 126]” was tested, and the “Peptide Exchange” value was ““+++” (≥50 = +++)”. For “335 (YLYQEQYFI; listed as Homo sapiens) [compound 335]”, the “Peptide Exchange” value was ““+++” (≥50 = +++)”. With “205 (GLSQANFTL; listed as Homo sapiens) [compound 205]” the “Peptide Exchange” value was ““+++” (≥50 = +++)”. In the case of “89 (ILDFGTFQL; listed as Homo sapiens) [compound 89]”, the “Peptide Exchange” value was ““+++” (≥50 = +++)”. With “228 (FLGGLSPGV; listed as Homo sapiens) [compound 228]” the “Peptide Exchange” value was ““+++” (≥50 = +++)”. In the case of “163 (SQLDISEPYKV; listed as Homo sapiens) [compound 163]”, the “Peptide Exchange” value was ““+++” (≥50 = +++)”. “149 (SLDNGGYYI; listed as Homo sapiens) [compound 149]” was tested, and the “Peptide Exchange” value was ““+++” (≥50 = +++)”. For “218 (ALGEEWKGYVV; listed as Homo sapiens) [compound 218]”, the “Peptide Exchange” value was ““++” (≥20% = ++)”. For “118 (RLLILENILL; listed as Homo sapiens) [compound 118]”, the “Peptide Exchange” value was ““+++” (≥50 = +++)”. In the case of “194 (YLDNVLAEL; listed as Homo sapiens) [compound 194]”, the “Peptide Exchange” value was ““++++” (≥75% = ++++)”. With “164 (SVHKGFAFV; listed as Homo sapiens) [compound 164]” the “Peptide Exchange” value was ““+++” (≥50 = +++)”. With “68 (GLDQQFAGLDL; listed as Homo sapiens) [compound 68]” the “Peptide Exchange” value was ““+” (≥10% = +)”. With “256 (QLLPVSNVVSV; listed as Homo sapiens) [compound 256]” the “Peptide Exchange” value was ““+++” (≥50 = +++)”. With “288 (GLAESTGLLAV; listed as Homo sapiens) [compound 288]” the “Peptide Exchange” value was ““+++” (≥50 = +++)”. For “300 (ILLNPAYDVYL; listed as Homo sapiens) [compound 300]”, the “Peptide Exchange” value was ““+++” (≥50 = +++)”. “331 (VLWELAHLPTL; listed as Homo sapiens) [compound 331]” was tested, and the “Peptide Exchange” value was ““+++” (≥50 = +++)”. With “130 (LLVLIPVYL; listed as Homo sapiens) [compound 130]” the “Peptide Exchange” value was ““+” (≥10% = +)”. For “250 (LLVQEPDGLMV; listed as Homo sapiens) [compound 250]”, the “Peptide Exchange” value was ““+++” (≥50 = +++)”. For “292 (AAALIIHHV; listed as Homo sapiens) [compound 292]”, the “Peptide Exchange” value was ““+++” (≥50 = +++)”. For “46 (YIIDSAQAV; listed as Homo sapiens) [compound 46]”, the “Peptide Exchange” value was ““+++” (≥50 = +++)”. “258 (RLDYITAEI; listed as Homo sapiens) [compound 258]” was tested, and the “Peptide Exchange” value was ““+++” (≥50 = +++)”. “266 (TLLDQLDTQL; listed as Homo sapiens) [compound 266]” was tested, and the “Peptide Exchange” value was ““++” (≥20% = ++)”. In the case of “85 (HLMLHTAAL; listed as Homo sapiens) [compound 85]”, the “Peptide Exchange” value was ““++++” (≥75% = ++++)”. For “305 (LLFPQIEGIKI; listed as Homo sapiens) [compound 305]”, the “Peptide Exchange” value was ““+++” (≥50 = +++)”. “362 (ILTELGGFEV; listed as Homo sapiens) [compound 362]” was tested, and the “Peptide Exchange” value was ““+++” (≥50 = +++)”. With “173 (TVIENIHTI; listed as Homo sapiens) [compound 173]” the “Peptide Exchange” value was ““++” (≥20% = ++)”. In the case of “272 (VLDELPPLI; listed as Homo sapiens) [compound 272]”, the “Peptide Exchange” value was ““+++” (≥50 = +++)”. “379 (YLAELVTPIL; listed as Homo sapiens) [compound 379]” was tested, and the “Peptide Exchange” value was ““+++” (≥50 = +++)”. In the case of “334 (YLLEEKIASL; listed as Homo sapiens) [compound 334]”, the “Peptide Exchange” value was ““+++” (≥50 = +++)”.
